40 sequences from the nanobody polyreactivity screen of Harvey et al. (2022) can be followed below.

The data set in a line: yeast display, Sf9 membrane polyspecificity reagent, FACS + sequencing; frameworks hold sequencing errors. The procedure, abridged: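 Sorting gates, low and high (top ~1%), were placed on anti-HA fluorescence to track expression and on streptavidin fluorescence to track reagent binding. A clone's polyreactivity label is taken from the gate it came out of. The reagent was 10% biotinylated, detergent-solubilized Sf9 membrane, applied for 1 hour at 4 °C to galactose-induced yeast display cells.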
As to “QVQLVESGGGLVQAGGSLRLSCAASGSTFGSYAMGWYRQAPGKERELVAAITASGGSTYYADSVKGRFTISRDNAKNTGYLQMNSLKPEDTAVYYCATRWFAFPWDEYNYWGQGTQVTVSS”, the “polyreactivity (PSR sort gate)” value is recorded as “low polyreactivity”. With “QVQLVESGGGLVQAGGSLRLSCAASGSTFGSYAMGWYRQAPGKERELVADISSRGASTYYADSVKGRFTISRDNAKNTVYFQMNSLKPEDTAVYYCARDVYIWYGYGYFPEYEYWGQGTQVTVSS”, the “polyreactivity (PSR sort gate)” value is reported as “low polyreactivity”. Turning to “QVQLVESGGGLVQAGGSLRLSCAASGSTFGSYAMGWYRQAPGKERELVAGISWSGGRTYYADSVKGRFTISRDNAKNTVYLQMNSLKPEDTAVYYRARDTGYYYARYNYWGQGTQVTVSS”, the “polyreactivity (PSR sort gate)” value was “low polyreactivity”.

As to “QVQLVESGGGLVQAGGSLRLSCAASGSTFGSYAMGWYRQAPGKERELVAVITGGGDTNYADSVKGRFTISRDNAKNTVYLQMNSLKPEDTAVYYCAAEGSFYRYHVGSDYWGQGTQLTVSS”, the “polyreactivity (PSR sort gate)” value is recorded as “low polyreactivity”.

Take “QVQLVESGGGLVQAGGSLRLSCAASGSTFGSYGMGGYRQAPGKERELVAGITSSGSTYYADSVKGRFTISRDNAKNTVYLQMNSLKPDDTAVYYCNARSGIDWYYDNDYWGQGTQVTVSS”: the “polyreactivity (PSR sort gate)” value is given as “low polyreactivity”. In the case of “QVQLVESGGGLVQAGGSLRLSCAASGSTFGSYGMGWYRQSPGKERELVAGITSAGSTYYADSVKGRFTISRDNAKNTVYLQMNSLKPEDTAVYYCNARSGIVWYYDNDYWGQGTQVTVSS” it was “low polyreactivity”; in that of “QVQLVESGGGLVQAGGSLRLSCAASGSTFGTYAMGWYRQAPGKERELVAAISNSGGSTYYADSVKGRFTISRDNAKNTVYLQMNSLKPEDTAVYYCNTDGLVRNGPFYSWGQGTQVTVSS”, “low polyreactivity”. With “QVQLVESGGGLVQAGGSLRLSCAASGSTFGTYGMGWSRQAPGKERESVADITSGGSTYYADSVKGRFTISRDNAKNTVYLQMNSLKPEDTAVYSCAASWFVWSTAVPYDYWGQGTQVTVSS”, the “polyreactivity (PSR sort gate)” value is reported as “low polyreactivity”. For the sequence “QVQLVESGGGLVQAGGSLRLSCAASGSTFGVNDMGWYRQAPWKERELVAAISRGAITNYADSVKGRFTISRDNAKNTVYLQMNSLKPEDTAVYYCAAGFVTYYVPQYKEYGYDYWGQGTQVTVSS”, the “polyreactivity (PSR sort gate)” value is “low polyreactivity”. As to “QVQLVESGGGLVQAGGSLRLSCAASGSTFGVYAMGWYRPAPGKERELVAAIRWSGGGTYYADSVKGRFTISRDNAKNTVYLQMNSLKPEDTAVYYCNTDILSIYAEPYYFTDVDYWGQGTQVTVSS”, the “polyreactivity (PSR sort gate)” value is recorded as “low polyreactivity”. Turning to “QVQLVESGGGLVQAGGSLRLSCAASGSTFGVYAMGWYRQAPGKERELVASITSGTSTYADSVKGRFTISRDNAKNTVYLQMNSLKPEDTAVYYCAAEYLYFNLGYDYWGQGTQVTVSS”, the “polyreactivity (PSR sort gate)” value is recorded as “low polyreactivity”. In the case of “QVQLVESGGGLVQAGGSLRLSCAASGSTFGWYAMGWYRQAPGIERELVATITSDSSTYYADSVKGRFTISRDNAKNTVYLQMNSLKPQDTAVYYCAATNYWIEYAPGYGLYSVEDDYWGQGTQVTVSS”, the “polyreactivity (PSR sort gate)” value was “low polyreactivity”. Regarding “QVQLVESGGGLVQAGGSLRLSCAASGSTFGWYAMGWYRQAPGKERELVAAINSSGDRTYYADSVKGRFTISRDNAKINVYLQMNSLKPEDTAVYYCAATYWARNWRYDYWGQGTQVTVSS”, the “polyreactivity (PSR sort gate)” value is listed as “high polyreactivity”. “QVQLVESGGGLVQAGGSLRLSCAASGSTFGWYAMGWYRQAPGKERELVAAIRRTGSTYYADSVKGRFTISRDNAKNTVYLQMNSLKPEDTAVYYCNAKYPLYLTGYDYWGQGTQVTVSS”: the “polyreactivity (PSR sort gate)” value is recorded as “low polyreactivity”.

“QVQLVESGGGLVQAGGSLRLSCAASGSTFGWYAMGWYRQAPGKERELVAAISTSGGSSYYADSVKGRFTISRDNAKNTVYLQMNSLKPEDTAVYYCNGYYRRYSITFDRYDYWGQGSQVTVSS”: the “polyreactivity (PSR sort gate)” value is reported as “high polyreactivity”. Consider “QVQLVESGGGLVQAGGSLRLSCAASGSTFGWYAMGWYRQAPGKERELVATISSGGSTYYADSVKGRFTISRDNAKNTVYLQMNCLKPEDTAVYYCAADYLTPWVYWFSYGLDYWGQGTQVTVSS”, for which the “polyreactivity (PSR sort gate)” value was “low polyreactivity”. With “QVQLVESGGGLVQAGGSLRLSCAASGSTFGWYTMGWYRQAPGKERELVATISYGGGITNYADSVKGRFTISRDNAKNTVYLQMNSLKPEDTAVYYCAARGDGVTNPFGYWGQGTQVTVSS” the entry was “high polyreactivity”.

For “QVQLVESGGGLVQAGGSLRLSCAASGSTFGWYTMGWYRQAPGKERELVATISYGGGITNYADSVKGRFTMSRDNAKNTVDLQMNSLKPEDTAVYYWAVDNTGRSWPYDYWGQGTQVTVSS”, the “polyreactivity (PSR sort gate)” value is “low polyreactivity”. Consider “QVQLVESGGGLVQAGGSLRLSCAASGSTFGYAMGWNRQAPGKERELVAAINWSGSRTYYADSVKGRFTISRDNAKNTVYLQMNSLKPEDTAVYYCAVLYAGDSPDFDYWGQGSQVTVSS”, for which the “polyreactivity (PSR sort gate)” value is “high polyreactivity”. With “QVQLVESGGGLVQAGGSLRLSCAASGSTFGYNAMGWYRQAPGKEREFVARIRSSGSTTYADSVKGRFTISRDNAKNTVYLQMNSLKPEDTAVYYCAATFRGRYAYYYWGQGTQVTVSS” the entry was “high polyreactivity”; with “QVQLVESGGGLVQAGGSLRLSCAASGSTFGYNAMGWYRQAPGKERELVAAIRISGGTTYYADSVKGRFTSSRDNAKNTVYLQMNSPKPSDTAVYYCAAGTAGTTGSPKFSGYGYDYWGQGTQVTVSS”, “low polyreactivity”.

In the case of “QVQLVESGGGLVQAGGSLRLSCAASGSTFGYNAMGWYRQAPGKERELVAAITRRGGITYYADSVKGRFTISRDNAKNTVYLQMNSLKPEDTAVYYCAKRLGYPGNSRNYYYWGQGTQVTVSS”, the “polyreactivity (PSR sort gate)” value is on record as “high polyreactivity”. “QVQLVESGGGLVQAGGSLRLSCAASGSTFGYNAMGWYRQAPGKERELVAASSRSGGRTYYADSVKGRFTISRDNAKNTVYLQMNSLKPEDTAVYYCATYYTNKVPARYYWGQGTQVTVSS”: the “polyreactivity (PSR sort gate)” value is “high polyreactivity”. As for “QVQLVESGGGLVQAGGSLRLSCAASGSTFGYNAMGWYRQAPGKERELVAGISSGGSTNYADSVKGRFTISRDNAKNTVYLQMNSLKPEDTAVYYCNVDERQFSTVYPYRQFDYWGQVTQVTVSS”, the “polyreactivity (PSR sort gate)” value was “low polyreactivity”. With “QVQLVESGGGLVQAGGSLRLSCAASGSTFGYNAMGWYRQAPGKERELVAGITGSGTRTYYADSVKGRFTISRDNAKNTVYLQMNSLKPEDTAVYYCAATPTRRYYRQSAYDYWGQGTQVTVSS” the entry was “high polyreactivity”. On to “QVQLVESGGGLVQAGGSLRLSCAASGSTFGYNAMGWYRQAPGTERELVAAISSRGGSTYYADSVKGRFTISRDNAKNTVYLQMNSLKPDDTAVYYCAADPPNGAEYYWGQGTQVTGSS”, for which the “polyreactivity (PSR sort gate)” value is on record as “high polyreactivity”. In the case of “QVQLVESGGGLVQAGGSLRLSCAASGSTFGYYAMGWYRPAPGKERELVAAINVSGGRTYYADSVKGRFTISRDNAKNTVYLQMNSLKPEDTAVYYCAAQRPEYRAGRYNYWGQGTQVTVSS” it was “high polyreactivity”; in that of “QVQLVESGGGLVQAGGSLRLSCAASGSTFGYYAMGWYRQAPGKERELVAAISWSGGSTYYADSVKGRFTISRDNAKNTVYLQMNSLKPEDTAVYYCNKVRGKTYYGEGDYWGQGTQVTVSS”, “high polyreactivity”; in that of “QVQLVESGGGLVQAGGSLRLSCAASGSTFGYYAMGWYRQAPGKERELVAAITSGASTNYADSVKGRFTISRDNAKNTVYLQMNSLKPEDTAVYYCAAANLQYGKDVQGDYWGQGTQVTVSS”, “low polyreactivity”. As for “QVQLVESGGGLVQAGGSLRLSCAASGSTFGYYAMGWYRQAPGKERELVAAITSNDGSTNYADSVKGRFTISRDNAKKTVYLQMNSLKPEDTAVYYCNARSFVAVISSFDYWGQGTQVTVSS”, the “polyreactivity (PSR sort gate)” value was “low polyreactivity”. In the case of “QVQLVESGGGLVQAGGSLRLSCAASGSTFGYYAMGWYRQAPGKERELVAAITWGGASTDYADSVKGRFTISRDNAKNTVYLQMNSLKPEDTAVYYCAKDNWDNPRPTSEMDYWGQGTQVTVSS” it was “low polyreactivity”; in that of “QVQLVESGGGLVQAGGSLRLSCAASGSTFGYYAMGWYRQAPGKERELVAAITYSGGGTYYADSVKGRFTISRDNAKNTVYLQMNSLKPEDTAVYYCAATIPYSLYGYDYWGQGTQVTVSS”, “low polyreactivity”; in that of “QVQLVESGGGLVQAGGSLRLSCAASGSTFGYYAMGWYRQAPGKERELVASINWRGDSTYYADSVKGRFTISRDNAKNTVYLQMNSLKPEDTAVYYCNKAYRRRYVQGEYWGQGTQVSVSS”, “high polyreactivity”. In the case of “QVQLVESGGGLVQAGGSLRLSCAASGSTFGYYAMGWYRQAPGKERELVASITWGGGSTYYADSVKGRFTISRDNAKNTVYLQMNSLKPEDTAVYYCAATILGGTWGYGSYTYYYWGHGTQVTVSS” it was “low polyreactivity”; in that of “QVQLVESGGGLVQAGGSLRLSCAASGSTFGYYAMGWYRQAPGKERELVATINWSGGSTYYADSEKGRFTISRDNAKNTVYLQMISLKPEDTAVYYCAADPYLQYYWAYDYWGQGTQVTVSS”, “low polyreactivity”; in that of “QVQLVESGGGLVQAGGSLRLSCAASGSTFGYYAMGWYRQAPGKERELVATITIGGSTHYADSVKGRFTISRDNAKNTVYLQMNSLKPEDTAVYYCAKRYYTNRHSRAFGFWGQGSQVTVSS”, “high polyreactivity”. Regarding “QVQLVESGGGLVQAGGSLRLSCAASGSTFGYYAMGWYRQAPGKERELVATITSSGDNTYADSVKGRFTISRDNAKNTVYLQMNSLKPEDTAVYYCNARYRKSSRPVYEPYERYYWGQGTQVTVSS”, the “polyreactivity (PSR sort gate)” value is “high polyreactivity”. In the case of “QVQLVESGGGLVQAGGSLRLSCAASGSTFGYYAMGWYRQAPGNEREFVAAITYGDGNTYYADSVKGRFTISRDNAKNTVYLQMNRLKPEDTAVYYCAKYYWAPTGAHGGYGYWGQGTQVTVSS” it was “low polyreactivity”; in that of “QVQLVESGGGLVQAGGSLRLSCAASGSTFGYYGMGWYRQAPGKERELVAAISTGGRTNYADSVKGRFTISRDNAKNTVYLQMNSLKPEDTAVYYCAADFLSAAYRPSWYRFDYWGQGTQVTVSS”, “low polyreactivity”; in that of “QVQLVESGGGLVQAGGSLRLSCAASGSTFGYYGMGWYRQAPGKERELVAAISTGGRTNYADSVKGRFTISRDNAKNTVYLQMNSLKPEDTAVYYCAADFLSPAYRPSWYRFDYWGQGTQVTVSS”, “low polyreactivity”.
